Measurements from US20190359711A1.
Numbering of substitutions follows the chain as printed. One block for each binder: values may come before it.

Columns and labels:
[1] = target: CD3 on human pan T cells (human) (UniProt P07766); experiment: Kd derived from the competition IC50: Kd=IC50/(1+([T]/KdT)); human pan T cells
[2] = target: CD3 on human pan T cells (human) (UniProt P07766); experiment: flow cytometry competition on human pan T cells; competitor tracer AlexaFluor488 SP34-2 at 16.6 nM

Chain of CD3 on human pan T cells (human) (P07766 23-207 limits assumed): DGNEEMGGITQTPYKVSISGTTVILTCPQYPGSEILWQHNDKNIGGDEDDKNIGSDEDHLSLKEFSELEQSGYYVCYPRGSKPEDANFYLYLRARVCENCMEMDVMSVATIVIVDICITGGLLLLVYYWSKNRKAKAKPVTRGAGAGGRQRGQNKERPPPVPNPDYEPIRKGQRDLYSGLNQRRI

Kd [1]: 103 nM
IC50 [2]: 409 nM
B1: CD3B376 monovalent construct (bispecific antibody, part only; not given: second arm, constant regions, V domains shown, not shown: another chain or arm of the molecule; a dimerising Fc or GST)
VH: QVQLQQSGPRLVRPSQTLSLTCAISGDSVFNNNAAWSWIRQSPSRGLEWLGRTYYRSKWLYDYAVSVKSRITVNPDTSRNQFTLQLNSVTPEDTALYYCARGYSSSFDYWGQGTLVTVSS
VL: QSALTQPASVSGSPGQSITISCTGTSSNIGTYKFVSWYQQHPDKAPKVLLYEVSKRPSGVSSRFSGSKSGNTASLTISGLQAEDQADYHCVSYAGSGTLLFGGGTKLTVL

Kd [1]: 254 nM
IC50 [2]: 1010 nM
B2: CD3B450 monovalent construct (bispecific antibody, part only; not given: second arm, constant regions, V domains shown, not shown: another chain or arm of the molecule; a dimerising Fc or GST)
VH: B1 VH with R10G, R13K, V73I, R79K, T83S, L96V
VL: B1 VL with D43G, L49M, L50I, S62N, Q85E, H89Y
